{"source": "paper PMC2175296", "molecular_target": "GST–hEST1A (recombinant full-length human EST1A/SMG6 as N-terminal GST fusion) (human) (UniProt Q86US8)", "sequence (Q86US8 whole entry, the tested form may be a part)": "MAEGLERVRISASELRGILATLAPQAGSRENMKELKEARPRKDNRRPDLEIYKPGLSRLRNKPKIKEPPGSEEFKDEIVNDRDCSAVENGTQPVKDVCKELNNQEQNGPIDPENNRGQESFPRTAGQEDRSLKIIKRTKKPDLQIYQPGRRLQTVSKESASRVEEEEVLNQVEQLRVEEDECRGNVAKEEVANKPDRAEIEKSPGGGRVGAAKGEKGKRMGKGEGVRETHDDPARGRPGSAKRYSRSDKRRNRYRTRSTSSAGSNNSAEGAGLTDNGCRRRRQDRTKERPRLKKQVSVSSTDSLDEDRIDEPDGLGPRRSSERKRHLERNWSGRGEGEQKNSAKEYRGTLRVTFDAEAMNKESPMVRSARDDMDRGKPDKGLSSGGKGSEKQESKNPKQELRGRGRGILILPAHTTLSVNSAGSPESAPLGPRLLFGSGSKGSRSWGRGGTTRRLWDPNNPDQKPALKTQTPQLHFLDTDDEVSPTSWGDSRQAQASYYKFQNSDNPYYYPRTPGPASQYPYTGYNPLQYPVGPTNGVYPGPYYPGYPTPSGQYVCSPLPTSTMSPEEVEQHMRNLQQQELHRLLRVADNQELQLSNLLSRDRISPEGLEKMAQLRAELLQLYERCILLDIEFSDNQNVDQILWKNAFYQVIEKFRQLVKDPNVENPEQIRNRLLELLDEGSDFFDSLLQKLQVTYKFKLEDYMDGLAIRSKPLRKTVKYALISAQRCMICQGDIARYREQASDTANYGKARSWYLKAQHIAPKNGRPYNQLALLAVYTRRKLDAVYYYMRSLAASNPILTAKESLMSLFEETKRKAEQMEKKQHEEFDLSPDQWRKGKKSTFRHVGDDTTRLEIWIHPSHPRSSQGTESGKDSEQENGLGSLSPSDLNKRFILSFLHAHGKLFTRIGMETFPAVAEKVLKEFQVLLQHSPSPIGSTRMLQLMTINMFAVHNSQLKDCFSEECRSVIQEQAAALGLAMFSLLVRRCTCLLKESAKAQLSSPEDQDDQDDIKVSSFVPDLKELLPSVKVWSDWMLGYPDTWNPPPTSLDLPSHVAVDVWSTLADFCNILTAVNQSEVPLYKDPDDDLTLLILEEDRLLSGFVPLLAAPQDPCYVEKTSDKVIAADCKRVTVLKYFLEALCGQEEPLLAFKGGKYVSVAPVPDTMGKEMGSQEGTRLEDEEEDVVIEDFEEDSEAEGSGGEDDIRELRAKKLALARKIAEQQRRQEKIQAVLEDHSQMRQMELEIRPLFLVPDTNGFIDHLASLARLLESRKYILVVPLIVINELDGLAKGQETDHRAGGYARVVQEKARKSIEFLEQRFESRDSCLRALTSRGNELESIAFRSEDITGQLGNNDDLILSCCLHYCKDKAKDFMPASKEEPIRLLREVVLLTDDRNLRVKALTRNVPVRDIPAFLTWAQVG", "assay": "pull-down", "note": "Values joined by “and” are separate entries in the source; they are usually repeats but may differ in a detail not shown here. Equal entries are not always repeated.", "data": [{"substance": "telomerase, expressed and reconstituted in insect cells or in RRL", "values": [{"measurement": "percent of telomerase activity associated with the beads", "value": "10 percent and 30 percent"}]}]}
